Results published in US20230270894A1 (Regeneron, published 2023).

T1: human LAG3 (lymphocyte activation gene-3 protein, CD223), expressed on cells (human, UniProt P18627 23-525)
T1 sequence: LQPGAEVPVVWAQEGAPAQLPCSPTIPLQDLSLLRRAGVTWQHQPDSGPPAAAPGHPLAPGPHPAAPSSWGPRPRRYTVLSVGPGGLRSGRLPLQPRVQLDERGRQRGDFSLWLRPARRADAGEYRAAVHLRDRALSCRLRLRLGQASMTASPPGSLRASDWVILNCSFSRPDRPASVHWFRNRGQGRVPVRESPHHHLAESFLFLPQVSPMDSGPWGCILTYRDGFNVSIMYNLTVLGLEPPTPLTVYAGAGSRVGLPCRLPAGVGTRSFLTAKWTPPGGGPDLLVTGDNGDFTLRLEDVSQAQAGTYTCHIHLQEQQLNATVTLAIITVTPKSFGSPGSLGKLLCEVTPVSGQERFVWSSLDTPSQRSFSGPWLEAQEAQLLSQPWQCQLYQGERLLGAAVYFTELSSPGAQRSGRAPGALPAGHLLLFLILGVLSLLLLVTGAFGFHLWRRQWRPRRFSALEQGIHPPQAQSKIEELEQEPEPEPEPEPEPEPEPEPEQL


How the values were obtained:
[1] = biological target: human LAG3 (lymphocyte activation gene-3 protein, CD223), expressed on cells (human) (UniProt P18627); assay: cell-based or functional assay
[2] = biological target: T1, human LAG3 (lymphocyte activation …); assay: cell-based or functional assay

Row | ex vivo biodistribution, tumor uptake (AVERAGE % ID/G) in MC38/ova/LAG3 tumors of NCr nude mice, 6 days post-dosing [1] | Tumor-to-blood ratio (average), Raji/hPBMC tumors, day 6, protein dose 0.03 mg/kg [2] | Tumor-to-blood ratio (average), Raji/hPBMC tumors, day 6, protein dose 0.1 mg/kg [2] | Tumor-to-blood ratio (average), Raji/hPBMC tumors, day 6, protein dose 0.3 mg/kg [2] | Tumor-to-blood ratio (average), Raji/hPBMC tumors, day 6, protein dose 5 mg/kg [2] | Molecule
1 | 7.8 % ID/g | – | – | – | – | 89Zr-DFO-conjugated isotype control antibody
2 | – | 9.71 ratio | 5.44 ratio | 3.46 ratio | 1.1 ratio | 89Zr-DFO-mAb1 (anti-LAG3 antibody H4sH15482P conjugated with p-SCN-Bn-DFO and radiolabeled with 89Zr) (antibody, V domains shown) VH: QVQLVESGGGVVQPGRSLRLSCVASGFTFSSYGMHWVRQAPGKGLEWVAIIWYDGSNKYYADSVKGRFTISRDNSKNTQYLQMNSLRAEDTAVYYCASVATSGDFDYYGMDVWGQGTTVTVSS VL: EIVLTQSPATLSLSPGERTTLSCRASQRISTYLAWYQQKPGQAPRLLIYDASKRATGIPARFSGSGSGTGFTLTISSLEPEDFAVYYCQQRSNWPLTFGGGTKVEIK
